Each block holds one molecule with its values, some of them ahead of it.
Legend:
[1] = biological target: Ral∆N63CDP-CBM37, Ral∆N63CDP fused at its C-terminus to CBM37 of R. albus 8 Cel5G by a glycine linker (Ruminococcus albus 8); assay: SEC; Superdex 200 10/300 in Buffer G (50 mM HEPES-NaOH pH 8.0, 100 mM NaCl, 0.1 mM EDTA); native mass from a calibration curve of standard proteins
[2] = system: T1, RalCDP-CBM37; assay: arsenolysis, glucose release, glucose oxidase-peroxidase, Michaelis-Menten fit; assay type: biochemical, Hominimerdicola alba; conditions: phosphorolysis direction measured as arsenolysis; arsenate as co-substrate; 50 mM sodium acetate pH 6.0, 45°C; read-out: K M (mM) (mg/mL)
T1 construct: CBM37 of R. albus 8 Cel5G fused by glycine linker (Gly X9) to C-terminus of full-length RalCDP in one polypeptide; His-tag kept; E. coli BL21 (DE3); homodimer

[3] = biological target: Ruminococcus albus 8 cellodextrin phosphorylase (RalCDP) (Ruminococcus albus 8); assay: SEC; Superdex 200 10/300 in Buffer G (50 mM HEPES-NaOH pH 8.0, 100 mM NaCl, 0.1 mM EDTA); native mass from a calibration curve of standard proteins
[4] = biological target: RalCDP-CBM37, RalCDP fused at its C-terminus to CBM37 of R. albus 8 Cel5G by a glycine linker (Ruminococcus albus 8); assay: as above
[5] = system: T1, RalCDP-CBM37; assay: glucose release, glucose oxidase-peroxidase, Michaelis-Menten fit; assay type: biochemical, Hominimerdicola alba; conditions: phosphorolysis direction; Pi as co-substrate; 50 mM sodium acetate pH 6.0, 45°C; read-out: K M (mM) (mg/mL)
[6] = biological target: Ruminococcus albus 8 cellobiose phosphorylase (RalCBP) (Ruminococcus albus 8); assay: SEC; Superdex 200 10/300 in Buffer G (50 mM HEPES-NaOH pH 8.0, 100 mM NaCl, 0.1 mM EDTA); native mass from a calibration curve of standard proteins
[7] = substrate: O=P(O)(O)O[C@H]1O[C@H](CO)[C@@H](O)[C@H](O)[C@H]1O; assay: Pi release, Malachite Green, Michaelis-Menten fit; assay type: biochemical, Hominimerdicola alba; conditions: synthesis direction (donor), co-substrate glucose, 100 mM sodium acetate pH 6.0, 45°C
From the text: Pi release, Malachite Green, Michaelis-Menten fit on RalCBP

[8] = substrate: O=P(O)(O)O; assay: purified protein; conditions: phosphorolysis direction, co-substrate cellobiose, 50 mM sodium acetate pH 6.0, 45°C

Km [2]: 0.24 ± 0.06 mM
Molecule: OC[C@H]1O[C@@H](O[C@H]2[C@H](O)[C@@H](O)[C@H](O[C@H]3[C@H](O)[C@@H](O)[C@H](O[C@H]4[C@H](O)[C@@H](O)C(O)O[C@@H]4CO)O[C@@H]3CO)O[C@@H]2CO)[C@H](O)[C@@H](O)[C@@H]1O (some centres unmarked) [Cellotetraose]

Km [2]: 0.14 ± 0.03 mM
Molecule: OC[C@H]1O[C@@H](O[C@H]2[C@H](O)[C@@H](O)[C@H](O[C@H]3[C@H](O)[C@@H](O)[C@H](O[C@H]4[C@H](O)[C@@H](O)[C@H](O[C@H]5[C@H](O)[C@@H](O)C(O)O[C@@H]5CO)O[C@@H]4CO)O[C@@H]3CO)O[C@@H]2CO)[C@H](O)[C@@H](O)[C@@H]1O (some centres unmarked) [Cellopentaose]

stoichiometry N [4]: 2
Molecule: RalCDP-CBM37, RalCDP fused at its C-terminus to CBM37 of R. albus 8 Cel5G by a glycine linker (enzyme)

Further lines, the molecule ahead of its results:

Molecule: Ral∆N63CDP-CBM37, Ral∆N63CDP fused at its C-terminus to CBM37 of R. albus 8 Cel5G by a glycine linker (enzyme)
stoichiometry N [1]: 5

Molecule: OC[C@H]1O[C@@H](O[C@H]2[C@H](O)[C@@H](O)[C@H](O[C@H]3[C@H](O)[C@@H](O)C(O)O[C@@H]3CO)O[C@@H]2CO)[C@H](O)[C@@H](O)[C@@H]1O (some centres unmarked) [Cellotriose]
Km [2]: 2.2 ± 0.3 mM

Molecule: Ruminococcus albus 8 cellodextrin phosphorylase (RalCDP) (enzyme)
stoichiometry N [3]: 2

Molecule: OC[C@H]1O[C@@H](O[C@H]2[C@H](O)[C@@H](O)C(O)O[C@@H]2CO)[C@H](O)[C@@H](O)[C@@H]1O (some centres unmarked) [Cellobiose]
Km [5]: 11 ± 2 mM

Molecule: Ruminococcus albus 8 cellobiose phosphorylase (RalCBP) (enzyme)
stoichiometry N [6]: 2

B1: RalCBP (Hominimerdicola alba 8) (protein)
chain: MKFGFFDDANKEYVITEPRTPYPWINYLGSQAFFSLISNTAGGYSFYKDARLRRITRYRYNNVPIDMGGRYFYINDNGTVWNPGWSPVKTELDAYTCRHGMGYTIIKGEKNGLEAEVTFFVPNNYNGEVQKVVLTNKSGAEKTFKLFSFAEWCLWDAQDDCTNFQRNFSTGRVEVDGSVIYHKTEYRDRRDHYAFYSVNDSIDGYDTDRDSFIGLYNGFNDPQAVMAGKANDSFADGWSPIASHYKEIKLGAGESKTLIFILGYVEMPVDQKFEADGKTINKVKAKAMMEQFDTPEKVDAGLAELKASWDKLLGILNVDTPDDKVDRMVNIWNQYQCMVTFNLSRSASYFESGIGRGMGFRDSNQDILGFVHQIPDRARERIIDIASTQLPDGGCYHQYQPLTKKGNSDIGGDFSDDPLWMILSVSAYIKETGDWGILDEMVPYDNDESKAQPMLDHLKVSFYHIVNNLGPHGLPLAMRADWNDCINLSCYSDTPGESFQTYTNPKFAAEGGYSKVAESVMVATLFTYTGPNYVAILKHLGKDDEAAAAQAEIDKMKKNVMASAWDGDWFLRAYDSEGKKMGSKECEEGQIFIEPQGFAIMSEIGKEQGADKKTLAAIDERLNTKFGLVLNNPAFTKYYIQYGEISTYPGGYKENAGIFTHNNAWIICAAAYAGQGDQAFKYYSEIAPAFTEETSDIHKTEPYVYGQMIGGKDAGSDIGRPGKNFGQGKNSWLTGTAAWNMVAISQYILGVQPDFDGLKIDPSIPAAWDGFNITRKFRGNTYNIAVKNPDHVCKGIKSVTVDGKKIDGIVMPVFEAGSVHEVEVVMG
notes: full length, His6-tag kept (methods: N-terminus; results: C-terminal), codon-optimized, E. coli BL21 (DE3); homodimer 180 kDa
Km [7]: 2000 ± 200 µM | kcat [7]: 178 ± 2 s⁻¹ | kcat/Km [7]: 89000 M⁻¹ s⁻¹ | Km [8]: 580 ± 20 µM | kcat [8]: 284 s⁻¹ | kcat/Km [8]: 490000 M⁻¹ s⁻¹
